Reference: article PMC4849472 (Cell Discovery, 2016)
Each block holds one binder with its values, some of them ahead of it.

What was measured:
Conditions in all cases: both partners purified
Hsp90 [1] = target: T1, Hsp90 (human, UniProt P07900 1-732); experiment: native MS; (Hsp70)2, GR, Hop and (Hsp90)2 all at 0.5 μM with Hsp40 and excess ATP; then an equimolar ratio of FKBP52 added to the formed complex
Hsp90 [2] = target: T1, Hsp90; experiment: native MS; as a8, then stoichiometric p23 added (300 μM ATP magnesium acetate, a further 15 min)
Hsp90 [3] = target: T1, Hsp90; experiment: native MS; p23 added to the client-transfer complex without immunophilin, with ATP; MS/MS (collision-induced dissociation) of the isolated 32+ charge state of (Hsp90)2(p23)2(GR)1
Hsp90 [4] = target: T1, Hsp90; experiment: native MS; competition: Hsp90_(2) with Hop, FKBP51 and FKBP52, all at equimolar concentration (3 μM)
Hsp90 [5] = target: T1, Hsp90; experiment: native MS; Hsp90_(2) 3 μM with FKBP51 and FKBP52 in twofold molar excess (6 μM), the highest concentrations studied
Hsp90 [6] = target: T1, Hsp90; experiment: native MS; as a12 (Hsp90/Hsp70/Hop/GR/Hsp40/p23/FKBP51), then challenged with excess FKBP52
[7] = target: client-transfer complex (Hsp90)2(Hop)1(Hsp70)2(GR)1 (human, UniProt P07900 1-732; P31948 1-543; P0DMV8 1-641; P04150 521-777, F602S); experiment: native MS; (Hsp70)2, GR, Hop and (Hsp90)2 all at 0.5 μM with Hsp40 and excess ATP; then an equimolar ratio of FKBP52 added to the formed complex
Hsp90 [8] = target: T1, Hsp90; experiment: native MS; Hsp90_(2) 1 μM with 2 μM of both FKBP51 and FKBP52

stoichiometry N (Hsp90 [1]): 1 per Hsp90 dimer
B1: glucocorticoid receptor ligand-binding domain (residues 521-777, F602S) (domain or fragment, human, UniProt P04150 521-777, looked up)
chain: VPATLPQLTPTLVSLLEVIEPEVLYAGYDSSVPDSTWRIMTTLNMLGGRQVIAAVKWAKAIPGFRNLHLDDQMTLLQYSWMSLMAFALGWRSYRQSSANLLCFAPDLIINEQRMTLPCMYDQCKHMLYVSSELHRLQVSYEEYLCMKTLLLLSSVPKDGLKSQELFDEIRMTYIKELGKAIVKREGNSSQNWQRFYQLTKLLDSMHEVVENLLNYCFQTFLDKTMSIEFPEMLAEIITNQIPKYSNGNIKKLLFHQK
notes: Used without ligand; also called GR; source: provided by Sophie Jackson and David Agard's labs; expressed and purified as previously described [33]

stoichiometry N (Hsp90 [2]): 1 per Hsp90 dimer | stoichiometry N (Hsp90 [3]): 2 per Hsp90 dimer
B2: p23 (natural protein, human, UniProt Q15185 1-160, looked up)
chain: MQPASAKWYDRRDYVFIEFCVEDSKDVNVNFEKSKLTFSCLGGSDNFKHLNEIDLFHCIDPNDSKHKRTDRSILCCLRKGESGQSWPRLTKERAKLNWLSVDFNNWKDWEDDSDEDMSNFDRFSEMMNNMGGDEDVDLPEVDGADDDSQDSDDEKMPDLE
notes: p23 co-chaperone, human; source: provided by Sophie Jackson and David Agard's labs; expressed and purified as previously described [33]

stoichiometry N (Hsp90 [4]): 1 per Hsp90 dimer | stoichiometry N (Hsp90 [5]): ≤ 2 per Hsp90 monomer | stoichiometry N (Hsp90 [6]): 1 per Hsp90 monomer | stoichiometry N [7]: 1 per client-transfer complex | stoichiometry N (Hsp90 [8]): ≤ 2 per Hsp90 dimer
B3: FKBP52 (natural protein, human, UniProt Q02790 1-459, looked up)
chain: MTAEEMKATESGAQSAPLPMEGVDISPKQDEGVLKVIKREGTGTEMPMIGDRVFVHYTGWLLDGTKFDSSLDRKDKFSFDLGKGEVIKAWDIAIATMKVGEVCHITCKPEYAYGSAGSPPKIPPNATLVFEVELFEFKGEDLTEEEDGGIIRRIQTRGEGYAKPNEGAIVEVALEGYYKDKLFDQRELRFEIGEGENLDLPYGLERAIQRMEKGEHSIVYLKPSYAFGSVGKEKFQIPPNAELKYELHLKSFEKAKESWEMNSEEKLEQSTIVKERGTVYFKEGKYKQALLQYKKIVSWLEYESSFSNEEAQKAQALRLASHLNLAMCHLKLQAFSAAIESCNKALELDSNNEKGLFRRGEAHLAVNDFELARADFQKVLQLYPNNKAAKTQLAVCQQRIRRQLAREKKLYANMFERLAEEENKAKAEASSGDHPTDTEMKEEQKSNTAGSQSQVETEA
notes: FKBP52, human immunophilin; The cited PDB entries hold overlapping segments of FKBP52, not the construct used here; source: provided by Sophie Jackson and David Agard's labs; expressed and purified as previously described [33]
